Reference: article PMC3781594 (Circulation, 2013)
Read-outs that look alike come from different tables or passages of the source.

T1: recombinant CD74 ectodomain (sCD74 = CD74 73-232) (UniProt P04233-2 73-232)
T1 sequence (looked up): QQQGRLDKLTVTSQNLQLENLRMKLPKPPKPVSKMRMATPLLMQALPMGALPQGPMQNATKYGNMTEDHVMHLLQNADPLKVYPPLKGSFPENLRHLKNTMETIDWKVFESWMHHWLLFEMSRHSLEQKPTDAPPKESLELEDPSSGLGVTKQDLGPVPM

B1: biotinylated MIF (ligand, UniProt P14174 1-115, looked up)
chain: MPMFIVNTNVPRASVPDGFLSELTQQLAQATGKPPQYIAVHVVPDQLMAFGGSSEPCALCSLHSIGKIGGAQNRSYSKLLCGLLAERLRISPDRVYINYYDMNAANVGWNNSTFA
modifications: biotin (site not stated)
B2: human macrophage migration inhibitory factor (MIF) (ligand, UniProt P14174 1-115, looked up)
chain: B1 chain

Legend:
[1] = target: T1, recombinant CD74 ectodomain (sCD74 = …); assay: ELISA
[2] = target: T1, recombinant CD74 ectodomain (sCD74 = …); assay: SPR
[3] = target: T1, recombinant CD74 ectodomain (sCD74 = …); assay: SPR; remark: listed apart in the source

Row | Binder | fold increase of MIF bound with 500 nM MIF20 against MIF without agonist [1] [fold] | Kd [2] [nM] | Kd [3] [nM]
1 | B1 | ~2.5 |  | 
2 | B2 |  | 2.25 | 6.06
